The record followed here is article PMC10786121, “Rab29-dependent asymmetrical activation of leucine-rich repeat kinase 2” (Science (New York, N.Y.), 2023).

The target in experiment [1] is leucine-rich repeat kinase 2 (LRRK2) (UniProt Q5S007). The experiment in a line: cryo-EM 2D classification; Rab29 T71A/S72A–LRRK2 complex; 2D classification performed with cross-correlation (fig. S9E). As to conditions: remark: other sources report otherwise.
For experiment [2] the target is unchanged. The experiment in a line: cryo-EM structure; complex reconstituted by mixing LRRK2, Rab29EM, GTP analog (GppNHp), ATP and Mg2+; three oligomeric assemblies (monomer, dimer, tetramer); C2 symmetry imposed for dimer and tetramer. The note with it: remark: other sources report otherwise.
The target in experiment [3] is T1, leucine-rich repeat kinase 2 (LRRK2) (UniProt Q5S007 1-2527).
T1 construct: leucine-rich repeat kinase 2 (LRRK2), wild type; domains ARM, ANK, LRR, ROC, COR, KIN, WD40; Near full-length LRRK2^peri could be modelled in the tetramer; Seen as monomer, dimer and tetramer in complex with Rab29; Also stands for the WT LRRK2 transfected into HEK293 cells in the functional rows; also called WT LRRK2; LRRK2^peri
T1 sequence (Q5S007 whole entry): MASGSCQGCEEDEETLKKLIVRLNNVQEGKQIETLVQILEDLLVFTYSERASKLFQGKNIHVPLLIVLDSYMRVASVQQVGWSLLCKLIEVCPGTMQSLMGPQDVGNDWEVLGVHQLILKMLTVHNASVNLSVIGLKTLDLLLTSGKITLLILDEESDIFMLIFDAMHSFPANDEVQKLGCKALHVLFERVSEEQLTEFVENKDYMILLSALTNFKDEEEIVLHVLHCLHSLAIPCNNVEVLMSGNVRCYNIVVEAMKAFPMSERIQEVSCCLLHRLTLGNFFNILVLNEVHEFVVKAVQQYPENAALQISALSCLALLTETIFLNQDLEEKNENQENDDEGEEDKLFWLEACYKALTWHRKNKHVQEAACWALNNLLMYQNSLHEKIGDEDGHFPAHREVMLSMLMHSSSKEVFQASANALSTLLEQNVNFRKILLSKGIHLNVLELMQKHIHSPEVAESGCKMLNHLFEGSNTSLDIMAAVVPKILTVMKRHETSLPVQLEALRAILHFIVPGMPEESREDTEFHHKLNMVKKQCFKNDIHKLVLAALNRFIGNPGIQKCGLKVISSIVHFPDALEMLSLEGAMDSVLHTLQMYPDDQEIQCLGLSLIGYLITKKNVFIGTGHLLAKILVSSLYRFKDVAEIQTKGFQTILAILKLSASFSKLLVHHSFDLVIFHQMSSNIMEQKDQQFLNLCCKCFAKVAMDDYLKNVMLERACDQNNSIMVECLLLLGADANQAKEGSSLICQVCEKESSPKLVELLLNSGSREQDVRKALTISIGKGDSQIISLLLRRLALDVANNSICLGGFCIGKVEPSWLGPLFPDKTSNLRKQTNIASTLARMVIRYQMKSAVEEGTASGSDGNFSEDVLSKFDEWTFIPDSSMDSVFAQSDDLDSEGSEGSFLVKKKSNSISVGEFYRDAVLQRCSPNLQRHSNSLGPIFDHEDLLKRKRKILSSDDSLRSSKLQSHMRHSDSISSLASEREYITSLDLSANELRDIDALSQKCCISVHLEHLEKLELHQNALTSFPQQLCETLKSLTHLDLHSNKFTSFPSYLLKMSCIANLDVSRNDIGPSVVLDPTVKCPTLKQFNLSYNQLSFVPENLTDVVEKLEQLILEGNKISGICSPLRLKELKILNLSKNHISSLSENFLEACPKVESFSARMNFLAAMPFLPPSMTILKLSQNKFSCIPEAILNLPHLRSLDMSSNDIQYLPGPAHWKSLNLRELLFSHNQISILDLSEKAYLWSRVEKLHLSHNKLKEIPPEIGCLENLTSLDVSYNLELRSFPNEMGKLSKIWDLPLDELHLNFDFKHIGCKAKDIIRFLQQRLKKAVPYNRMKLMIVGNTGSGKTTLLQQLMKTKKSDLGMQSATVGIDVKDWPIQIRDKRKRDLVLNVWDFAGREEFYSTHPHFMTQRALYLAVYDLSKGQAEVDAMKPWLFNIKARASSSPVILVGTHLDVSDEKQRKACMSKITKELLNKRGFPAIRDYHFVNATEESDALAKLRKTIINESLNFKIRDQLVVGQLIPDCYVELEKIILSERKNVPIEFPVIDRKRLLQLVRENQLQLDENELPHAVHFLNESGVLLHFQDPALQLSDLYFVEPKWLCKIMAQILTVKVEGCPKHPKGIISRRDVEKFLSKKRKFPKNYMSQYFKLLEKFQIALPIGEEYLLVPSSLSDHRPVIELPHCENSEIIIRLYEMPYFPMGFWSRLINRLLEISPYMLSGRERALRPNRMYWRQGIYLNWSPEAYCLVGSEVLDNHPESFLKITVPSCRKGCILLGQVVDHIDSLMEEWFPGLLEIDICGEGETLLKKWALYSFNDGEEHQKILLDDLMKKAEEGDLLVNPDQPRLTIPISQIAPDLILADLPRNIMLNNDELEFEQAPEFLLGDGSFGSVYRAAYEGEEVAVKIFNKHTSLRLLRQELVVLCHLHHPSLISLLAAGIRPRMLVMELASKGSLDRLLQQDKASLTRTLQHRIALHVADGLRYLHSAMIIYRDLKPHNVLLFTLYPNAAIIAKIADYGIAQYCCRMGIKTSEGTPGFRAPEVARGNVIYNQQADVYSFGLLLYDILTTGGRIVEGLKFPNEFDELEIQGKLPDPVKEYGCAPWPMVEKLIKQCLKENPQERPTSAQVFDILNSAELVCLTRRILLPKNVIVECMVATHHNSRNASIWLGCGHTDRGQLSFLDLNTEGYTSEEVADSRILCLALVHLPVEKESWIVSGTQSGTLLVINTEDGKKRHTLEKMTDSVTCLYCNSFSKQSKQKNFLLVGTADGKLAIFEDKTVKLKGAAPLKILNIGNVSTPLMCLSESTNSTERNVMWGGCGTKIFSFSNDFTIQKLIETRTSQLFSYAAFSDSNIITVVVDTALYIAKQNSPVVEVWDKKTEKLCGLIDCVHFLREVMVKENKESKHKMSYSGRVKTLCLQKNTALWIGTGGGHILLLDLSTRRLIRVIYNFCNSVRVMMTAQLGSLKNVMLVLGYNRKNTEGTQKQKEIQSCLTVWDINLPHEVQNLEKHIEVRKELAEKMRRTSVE
The experiment is described as above. The note with it: both partners purified.

The term stoichiometry N denotes the number of molecules, sites or subunits per partner or assembly. In the case of “leucine-rich repeat kinase 2 (LRRK2), Q5S007 1-2527”, the stoichiometry N in experiment [1] and in experiment [2] was 4 throughout.

B1: Rab29EM (Rab29 Q67L, T71A, S72A) (natural protein)
chain: MGSRDHLFKVLVVGDAAVGKTSLVQRYSQDSFSKHYKSTVGVDFALKVLQWSDYEIVRLQLWDIAGLERFAAMTRLYYRDASACVIMFDVTNATTFSNSQRWKQDLDSKLTLPNGEPVPCLLLANKCDLSPWAVSRDQIDRFSKENGFTGWTETSVKENKNINEAMRVLIEKMMRNS
notes: Rab29, a Rab GTPase encoded in the PARK16 locus, with three point mutations; constructs are in the supplementary Materials and Methods; also called Rab29^peri
B1: the “stoichiometry N” value in experiment [3] stood at 1.
